This assay has as its target FLAG-tagged TgMLC1 C(8,11)S (Toxoplasma gondii). Put plainly: co-IP; anti-FLAG M2 affinity resin, Triton X-100 extract of parasites in FLAG lysis buffer (10 mM imidazole pH 7.4, 300 mM NaCl, 1 mM EGTA, 5 mM MgCl2, 1% TX-100, 2 mM DTT, 2 mM ATP), overnight at 4°C, eluted with FLAG peptide, quantitative Western blotting. For orientation: A western blot detects proteins with antibodies after separation by electrophoresis.

Two substances from PMC8265671 can be followed below.

Consider “TgMyoA (Toxoplasma gondii class XIVa myosin heavy chain) (from UniProt O00934 1-831)”, for which the fold increase in the amount recovered, against WT TgMLC1 lay in the range of 2 to 3 fold. As for “TgELC1 (Toxoplasma gondii essential light chain 1) (natural protein)”, the fold increase in the amount recovered, against WT TgMLC1 lay in the range of 2 to 3 fold.
